Data on 5 substances can be found in patent US20190375786A1, “STABLE PEPTIDES AND METHODS OF USE THEREOF” (Fred Hutchinson Cancer Research Center, priority 2016, published 2019).

Series [1] can be described thus: Resistance to reduction by DTT, RP-HPLC. The conditions noted are these: 10 mM DTT in PBS, room temperature, 30 minutes; HPLC peak vs untreated peptide. The format is physicochemical. On the procedure:
Peptides were first suspended in 500 ul of ddH2O to a stock concentration of 2 mg/ml. Reactions were prepared by adding 12.5 ug of peptide from the stock solution to a 10 mM solution of DTT in PBS and allowed to incubate at room temperature for 30 minutes. Other reactions were prepared with 12.5 μg peptide with or without 500 U/ml pepsin in simulated gastric fluid (SGF; pH 1.05; […] sodium chloride in 0.7% (v/v) hydrochloric acid) and were incubated for 30 minutes at 37.5° C. Some reactions were quenched with a final concentration of 100 mM Tris base and 10 mM dithiothreitol (DTT). Some reactions were performed in all of the above components, including simulated gastric fluid, pepsin, Tris, and DTT (referred to as SPTD). Reversed phase HPLC (RP-HPLC) was run on samples using an Agilent 1260 HPLC equipped with a C-18 Poroshell 120B column. Sample were analyzed by a gradient method with a mobile phase of Solvent A (water with 0.1% TFA) and Solvent B (acetonitrile with 0.1% TFA). Solvent B was ramped up from 5%-45% of the mobile phase over a period of 10 minutes. Peptides were detected at an absorbance of 214 nm and 280 nm.
(§1) Peptides were first suspended in 500 μl of ddH2O to a stock concentration of 2 mg/ml. Reactions were prepared by adding 12.5 μg of peptide from the stock solution to a 10 mM solution of DTT in PBS and allowed to incubate at room temperature for 30 minutes. Other reactions were prepared with 12.5 μg peptide and 500 U/ml trypsin in 25 mM Tris/75 mM NaCl buffer (pH 7.0) and incubated for 30 minutes at 37.5° C. These reactions were then quenched with 5 μg of soybean trypsin inhibitor (I) and, in some cases, 10 mM dithiothreitol (DTT). Reversed phase HPLC (RP-HPLC) was run on samples using an Agilent 1260 HPLC equipped with a C-18 Poroshell 120B column. Sample were analyzed by a gradient method with a mobile phase of Solvent A (water with 0.1% TFA) and Solvent B (acetonitrile with 0.1% TFA). Solvent B was ramped up from 5%-45% of the mobile phase over a period of 10 minutes. For testing pepsin digestion resistance, reactions were prepared with 12.5 μg peptide with or without 500 U/ml pepsin in simulated gastric fluid (SGF; pH 1.05; […] sodium chloride in 0.7% (v/v) hydrochloric acid) and were incubated for 30 minutes at 37.5° C. For testing temperature resistance, peptides were incubated at 70° C., 75° C., or 100° C. for one hour in 0.5 mM PBS, pelleted, and then the supernatant was analyzed by HPLC.
This example illustrates peptide stability in biological conditions including in the presence of reducing agents, proteases, oxidative conditions, acidic conditions, and simulated gastric fluids. […] Various peptides were suspended in 500 μl of ddH2O at a stock concentration of 2 mg/ml. This was then diluted in accord with the reaction conditions to prevent adverse buffering effects. Reactions were prepared with 12.5 μg peptide dissolved in solution and, in some samples, additionally suspended in a 10 mM solution of DTT, simulated gastric fluid (pH 1.05; […] sodium chloride in 0.7% (v/v) hydrochloric acid), 500 U pepsin (5000 U/ml pepsin), 50 U trypsin (500 U/ml trypsin) with 1 mg/ml inhibitor in PBS, or a combination of any of these conditions. All protease reactions were incubated for 30 min at room temperature and then quenched. Pepsin reactions were quenched by adding Tris base to a final concentration of 0.075 M. Trypsin reactions were quenched by adding excess soybean trypsin inhibitor. RP-HPLC was then run on samples using an Agilent 1260 HPLC equipped with a C-18 Poroshell 120B column. Sample were analyzed by a gradient method with a mobile phase of Solvent A (water with 0.1% TFA) and Solvent B (acetonitrile with 0.1% TFA). Solvent B was ramped up from 5%-45% of the mobile phase over a period of 10 minutes.
FIG. 18 illustrates high performance liquid chromatograph (HPLC) traces of peptides in non-reducing (NR) conditions (solid trace) or in 10 mM DTT reducing (R) conditions (dashed trace). […]

The target in the next series is trypsin (Sus scrofa, UniProt P00761). In words: Trypsin digestion resistance of soluble peptide, RP-HPLC. Details: purchased Sigma Aldrich 6567. The format is in vitro ADME, porcine. Particulars: 500 U/ml trypsin, 30 minutes at 37.5° C.; HPLC peak vs untreated peptide. The procedure, abridged:
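Read-out was RP-HPLC (C-18, water/acetonitrile with 0.1% TFA, 5-45% over 10 min) of peptide left after trypsin treatment. Digest: 12.5 μg peptide, 500 U/ml porcine trypsin, PBS, 37.5° C for 30 min, stopped by soybean trypsin inhibitor; samples then reduced (10 mM DTT) or left non-reduced.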

Another series concerns the target pepsin (Sus scrofa, UniProt P00791). In words: Pepsin digestion resistance in simulated gastric fluid, RP-HPLC. The format is in vitro ADME, porcine. Details: purchased Sigma Aldrich P7012. Particulars: 500 U/ml pepsin in SGF pH 1.05, 30 minutes at 37.5° C.; HPLC peak vs untreated peptide. The method in brief: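 Digestion resistance read by reversed-phase HPLC (C-18, 0.1% TFA, 5–45% acetonitrile over 10 min; 214/280 nm) after 12.5 μg peptide spent 30 min at 37.5 °C in pH 1.05 simulated gastric fluid, with or without 500 U/ml pepsin. Some samples quenched with Tris base and DTT.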

A short description of series [2]: Resistance to elevated temperature, HPLC. The format is physicochemical. The conditions noted are these: HPLC peak vs untreated peptide; for Resistance to Temperature (75° C.): 75° C. for one hour; for Resistance to Temperature (100° C.): 100° C. for one hour. On the procedure: as §1
This example illustrates peptide stability at high temperatures. Peptides were first suspended in 500 μl of ddH2O to a stock concentration of 2 mg/ml. Reactions were prepared by adding 6.25 μl of peptide from the stock solution with 95 μl ddH2O and incubated at room temperature, 70° C., or 100° C. for one hour in a Thermocycler. RP-HPLC was then run on samples using an Agilent 1260 HPLC equipped with a C-18 Poroshell 120B column. Sample were analyzed by a gradient method with a mobile phase of Solvent A (water with 0.1% TFA) and Solvent B (acetonitrile with 0.1% TFA). Solvent B was ramped up from 5%-45% of the mobile phase over a period of 10 minutes.

trypsin, sequence (P00761 9-231): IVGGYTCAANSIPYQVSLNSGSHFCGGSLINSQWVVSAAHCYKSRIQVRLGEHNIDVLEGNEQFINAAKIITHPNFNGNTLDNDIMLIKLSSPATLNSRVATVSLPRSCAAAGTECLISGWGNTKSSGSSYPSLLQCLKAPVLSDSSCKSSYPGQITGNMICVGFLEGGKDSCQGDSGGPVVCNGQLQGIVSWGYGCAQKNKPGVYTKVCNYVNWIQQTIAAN
pepsin, sequence (P00791 60-385): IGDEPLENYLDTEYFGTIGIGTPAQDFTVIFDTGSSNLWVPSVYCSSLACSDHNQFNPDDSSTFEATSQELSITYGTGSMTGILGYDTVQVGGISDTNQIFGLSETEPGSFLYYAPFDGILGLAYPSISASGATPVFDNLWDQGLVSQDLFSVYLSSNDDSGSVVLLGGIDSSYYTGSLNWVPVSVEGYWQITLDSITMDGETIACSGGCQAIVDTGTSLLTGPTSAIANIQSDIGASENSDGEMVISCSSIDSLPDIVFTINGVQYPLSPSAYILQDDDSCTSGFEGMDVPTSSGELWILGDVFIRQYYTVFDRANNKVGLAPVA

“4 (GSGDCLPHLKRCKENNDCCSKKCKRRGANPEKRCR) [compound 4]”: the “Resistance to DTT Reduction (10 mM)” value in series [1] is given as “Low (A peptide classified as low indicates that the majority (over 75%) of the HPLC peak of the treated peptide disappeared as compared to the HPLC peak of the untreated peptide)”. The “Resistance to Trypsin (500 U/ml)” value in the series with trypsin is given as “Low (A peptide classified as low indicates that the majority (over 75%) of the HPLC peak of the treated peptide disappeared as compared to the HPLC peak of the untreated peptide)”. In addition, the “Resistance to Pepsin (500 U/ml)” value in the series with pepsin is on record as “High (A peptide classified as high indicates that the majority (at least 75%) of the HPLC peak of the treated peptide is still present as compared to the HPLC peak of the untreated peptide)”. Also, in series [2], the “Resistance to Temperature (75° C.)” value is “High (A peptide classified as high indicates that the majority (at least 75%) of the HPLC peak of the treated peptide is still present as compared to the HPLC peak of the untreated peptide)” and the “Resistance to Temperature (100° C.)” value is reported as “Low (A peptide classified as low indicates that the majority (over 75%) of the HPLC peak of the treated peptide disappeared as compared to the HPLC peak of the untreated peptide)”.
Consider “7 (GSDRDSCIDKSRCSKYGYYQECQDCCKKAGHNGGTCMFFKCKCA) [compound 7]”, for which the “Resistance to DTT Reduction (10 mM)” value in series [1] is given as “Low (A peptide classified as low indicates that the majority (over 75%) of the HPLC peak of the treated peptide disappeared as compared to the HPLC peak of the untreated peptide)”. The “Resistance to Trypsin (500 U/ml)” value with trypsin is given as “Low (A peptide classified as low indicates that the majority (over 75%) of the HPLC peak of the treated peptide disappeared as compared to the HPLC peak of the untreated peptide)”. In the series with pepsin, the “Resistance to Pepsin (500 U/ml)” value is on record as “High (A peptide classified as high indicates that the majority (at least 75%) of the HPLC peak of the treated peptide is still present as compared to the HPLC peak of the untreated peptide)”. In series [2], the “Resistance to Temperature (75° C.)” value is on record as “High (A peptide classified as high indicates that the majority (at least 75%) of the HPLC peak of the treated peptide is still present as compared to the HPLC peak of the untreated peptide)” and the “Resistance to Temperature (100° C.)” value is “High (A peptide classified as high indicates that the majority (at least 75%) of the HPLC peak of the treated peptide is still present as compared to the HPLC peak of the untreated peptide)”.
Consider “9 (GSQFCGTNGKPCVNGQCCGALRCVVTYHYADGVCLKMNP) [compound 9]”, for which the “Resistance to DTT Reduction (10 mM)” value in series [1] was “Low (A peptide classified as low indicates that the majority (over 75%) of the HPLC peak of the treated peptide disappeared as compared to the HPLC peak of the untreated peptide)”. Also, the “Resistance to Trypsin (500 U/ml)” value in the series with trypsin is “Moderate (A peptide classified as medium indicates that about half (between 25% and 75%) of the HPLC peak of the treated peptide disappeared as compared to the HPLC peak of the untreated peptide)”. Besides, in the series with pepsin, the “Resistance to Pepsin (500 U/ml)” value is on record as “High (A peptide classified as high indicates that the majority (at least 75%) of the HPLC peak of the treated peptide is still present as compared to the HPLC peak of the untreated peptide)”. In addition, in series [2], the “Resistance to Temperature (75° C.)” value is listed as “High (A peptide classified as high indicates that the majority (at least 75%) of the HPLC peak of the treated peptide is still present as compared to the HPLC peak of the untreated peptide)” and the “Resistance to Temperature (100° C.)” value is on record as “Low (A peptide classified as low indicates that the majority (over 75%) of the HPLC peak of the treated peptide disappeared as compared to the HPLC peak of the untreated peptide)”.
Regarding “11 (GSNCAGYMRECKEKLCCSGYVCSSRWKWCVLPAPWRR) [compound 11]”, the “Resistance to DTT Reduction (10 mM)” value in series [1] was “Low (A peptide classified as low indicates that the majority (over 75%) of the HPLC peak of the treated peptide disappeared as compared to the HPLC peak of the untreated peptide)”. Further, the “Resistance to Trypsin (500 U/ml)” value with trypsin was “High (A peptide classified as high indicates that the majority (at least 75%) of the HPLC peak of the treated peptide is still present as compared to the HPLC peak of the untreated peptide)”. Also, in the series with pepsin, the “Resistance to Pepsin (500 U/ml)” value was “High (A peptide classified as high indicates that the majority (at least 75%) of the HPLC peak of the treated peptide is still present as compared to the HPLC peak of the untreated peptide)”. Moreover, in series [2], the “Resistance to Temperature (75° C.)” value is “High (A peptide classified as high indicates that the majority (at least 75%) of the HPLC peak of the treated peptide is still present as compared to the HPLC peak of the untreated peptide)” and the “Resistance to Temperature (100° C.)” value is given as “Low (A peptide classified as low indicates that the majority (over 75%) of the HPLC peak of the treated peptide disappeared as compared to the HPLC peak of the untreated peptide)”.
Regarding “13 (GSAEIIRCSGTRECYAPCQKLTGCLNAKCMNKACKCYGCV) [compound 13]”, the “Resistance to DTT Reduction (10 mM)” value in series [1] is “Low (A peptide classified as low indicates that the majority (over 75%) of the HPLC peak of the treated peptide disappeared as compared to the HPLC peak of the untreated peptide)”. The “Resistance to Trypsin (500 U/ml)” value in the series with trypsin was “Low (A peptide classified as low indicates that the majority (over 75%) of the HPLC peak of the treated peptide disappeared as compared to the HPLC peak of the untreated peptide)”. The “Resistance to Pepsin (500 U/ml)” value in the series with pepsin was “High (A peptide classified as high indicates that the majority (at least 75%) of the HPLC peak of the treated peptide is still present as compared to the HPLC peak of the untreated peptide)”. Further, in series [2], the “Resistance to Temperature (75° C.)” value was “High (A peptide classified as high indicates that the majority (at least 75%) of the HPLC peak of the treated peptide is still present as compared to the HPLC peak of the untreated peptide)” and the “Resistance to Temperature (100° C.)” value is “High (A peptide classified as high indicates that the majority (at least 75%) of the HPLC peak of the treated peptide is still present as compared to the HPLC peak of the untreated peptide)”.
